This experiment concerns the target T1, human OX40 ligand (human, UniProt P23510 51-183, limits assumed).
T1 construct: also called hOX40L; the target
T1 sequence (looked up): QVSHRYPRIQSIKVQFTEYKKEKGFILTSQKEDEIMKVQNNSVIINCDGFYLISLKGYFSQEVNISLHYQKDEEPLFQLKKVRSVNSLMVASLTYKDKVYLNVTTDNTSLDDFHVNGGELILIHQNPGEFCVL
Nature of the experiment: PK ELISA of KY1005 in human serum on coated human OX40 ligand. (An ELISA detects its analyte on a solid surface through an enzyme-linked reagent.)

The source of these data is patent US20230235069A1 (KYMAB, published 2023).

B1: KY1005 (antibody, human IgG4 S228P, kappa, V domains shown)
VH: EVQLVESGGGLVQPGGSLRLSCAASGFTFSNYAMNWVRQAPGKGLEWVSTISGSGGATRYADSVKGRFTISRDNSRNTVYLQMNSLRVEDTAVFYCTKDRLIMATVRGPYYYGMDVWGQGTTVTVSS
VL: DIQMTQSPSSLSASVGDRVTITCRASQSISSYLNWYQQKPGKAPNLLIYAASSLQSGVPSRFSGSGSETDFTLTISSLQPEDFATYYCQQSHSVSFTFGPGTKVDIKR
notes: also called 2D10; 02D10
As to B1, the binding result is given as “binds”.
